Measured values as given in the supplement of paper PMC10126150.
± gives the standard deviation of the averaged measurements.

test system: ATP; assay: switch fluorescence ratio, 500 uM ATP over buffer (Cy3 cluster intensity, sum of 5 cycles each) (fold (ratio)); higher = stronger signal-on switching upon ATP binding; sequences stand for … in TCGTCGGCAGCGTCAGATGTGTATAAGAGACAGTTTTTTTTTTTTTTTTTTTTTTTTT…TC; conditions: aptamer strand: ATP DNA aptamer (quencher-CACCTGGGGGAGTATTGCGGAGGAAGG + anchor), 100 nM annealed; ATP concentration: 500 uM
How it was run: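 The fluorescence ratio divides summed target-cycle Cy3 intensity by summed buffer-cycle Cy3 intensity for each cluster and is averaged per switch-domain sequence. Cy3-labelled switching-strand clusters on a modified Illumina MiSeq flow-cell were annealed to 100 nM quencher-labelled ATP aptamer, then imaged in selection buffer and again after 15 min with 500 uM ATP at 22 °C. Five such cycles were run, with NaOH stripping and re-annealing between them, and clusters outside 100-1000 RFU were excluded.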
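Note: ATP exposure 15 min at 22 °C before imaging.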

| Sequence | switch fluorescence ratio |
| --- | --- |
| ATTGATCTCC | 1.03 ± 0.072 |
| ATTGATGATA | 1.018 ± 0.0092 |
| ATTGATGGCC | 0.963 ± 0.032 |
| ATTGATTCGG | 0.999 ± 0.014 |
| ATTGCAGCGG | 1 ± 0.02 |
| ATTGCATTCA | 0.9949 ± 0.0041 |
| ATTGCCCGTT | 1.09 ± 0.21 |
| ATTGCCGAGT | 1.03 ± 0.022 |
| ATTGCGCAAG | 1.01 ± 0.02 |
| ATTGCTATGG | 1.01 ± 0.016 |
| ATTGCTATTC | 1.03 ± 0.014 |
| ATTGCTGGGG | 1.01 ± 0.056 |
| ATTGGAAAAG | 0.985 ± 0.035 |
| ATTGGACTAG | 0.989 ± 0.07 |
| ATTGGACTG | 1.01 ± 0.035 |
| ATTGGAGGGT | 0.979 ± 0.025 |
| ATTGGAGTGG | 0.994 ± 0.032 |
| ATTGGATGTG | 0.981 ± 0.019 |
| ATTGGCGTGC | 0.987 ± 0.03 |
| ATTGGCGTGG | 1.01 ± 0.019 |
| ATTGGGAGAT | 1.024 ± 0.0064 |
| ATTGGGAGGT | 0.972 ± 0.033 |
| ATTGGGCAGT | 0.973 ± 0.053 |
| ATTGGGGAGA | 1.04 ± 0.052 |
| ATTGGGGAGC | 0.989 ± 0.014 |

| Sequence | switch fluorescence ratio |
| --- | --- |
| ATTGGGGATT | 1.013 ± 0.009 |
| ATTGGGGCGC | 0.991 ± 0.041 |
| ATTGGGTCGG | 0.996 ± 0.02 |
| ATTGGTAGAG | 0.9717 ± 0.0024 |
| ATTGGTAGTG | 0.997 ± 0.034 |
| ATTGGTCAGC | 0.982 ± 0.035 |
| ATTGGTGTAG | 0.972 ± 0.023 |
| ATTGTAGGC | 1.01 ± 0.029 |
| ATTGTAGTTT | 1 ± 0.066 |
| ATTGTATAAG | 0.9828 ± 0.0052 |
| ATTGTATCAG | 0.983 ± 0.027 |
| ATTGTATGGA | 1 ± 0.011 |
| ATTGTATGGT | 0.956 ± 0.012 |
| ATTGTCAGTT | 1.013 ± 0.0029 |
| ATTGTCGTGA | 0.991 ± 0.037 |
| ATTGTCTAGC | 0.999 ± 0.019 |
| ATTGTCTTCG | 0.987 ± 0.041 |
| ATTGTGAACG | 1 ± 0.042 |
| ATTGTGATGA | 1.024 ± 0.0085 |
| ATTGTGCCGA | 0.972 ± 0.011 |
| ATTGTGCGAC | 1 ± 0.021 |
| ATTGTGCTTT | 1.04 ± 0.024 |
| ATTGTGGAGC | 1.04 ± 0.061 |
| ATTGTGGGGT | 0.977 ± 0.04 |
| ATTGTGGTCC | 1.007 ± 0.0082 |

| Sequence | switch fluorescence ratio |
| --- | --- |
| ATTGTGTTTT | 0.99 ± 0.062 |
| ATTGTTGATC | 1.01 ± 0.029 |
| ATTGTTTAAG | 1.01 ± 0.024 |
| ATTGTTTAGC | 1.01 ± 0.075 |
| ATTGTTTCCT | 1.06 ± 0.039 |
| ATTTACGAGT | 0.981 ± 0.045 |
| ATTTACGGGT | 1.015 ± 0.0082 |
| ATTTAGGACT | 0.978 ± 0.027 |
| ATTTAGGGTA | 0.9856 ± 0.0078 |
| ATTTAGTTTA | 0.996 ± 0.017 |
| ATTTATGCGG | 0.985 ± 0.029 |
| ATTTATGGTA | 0.971 ± 0.014 |
| ATTTATGTAA | 0.987 ± 0.012 |
| ATTTATGTTT | 0.979 ± 0.03 |
| ATTTATTCCT | 1.05 ± 0.015 |
| ATTTATTCTA | 0.976 ± 0.036 |
| ATTTATTCTT | 1.011 ± 0.0052 |
| ATTTATTTGT | 0.986 ± 0.03 |
| ATTTCAGTGT | 1.009 ± 0.0044 |
| ATTTCATGCG | 1.03 ± 0.023 |
| ATTTCATGTG | 0.9853 ± 0.0035 |
| ATTTCCACAA | 1.1 ± 0.03 |
| ATTTCCTGTG | 1.042 ± 0.0014 |
| ATTTCGGGGT | 1.01 ± 0.042 |
| ATTTCGGTCT | 0.9892 ± 0.0049 |

| Sequence | switch fluorescence ratio |
| --- | --- |
| ATTTCTTTCA | 1.02 ± 0.033 |
| ATTTGAAACT | 1.02 ± 0.029 |
| ATTTGAAGGT | 1.01 ± 0.018 |
| ATTTGAATGG | 0.987 ± 0.027 |
| ATTTGAGGGC | 1.01 ± 0.033 |
| ATTTGAGTTT | 1.01 ± 0.038 |
| ATTTGATTTG | 1 ± 0.046 |
| ATTTGCCCAT | 0.986 ± 0.019 |
| ATTTGCGTAC | 1.277 ± 0.0018 |
| ATTTGCTATT | 1.003 ± 0.0045 |
| ATTTGCTTAG | 0.994 ± 0.021 |
| ATTTGGAATT | 1 ± 0.027 |
| ATTTGGACGT | 1.02 ± 0.016 |
| ATTTGGCGGT | 0.997 ± 0.025 |
| ATTTGGGACA | 1.01 ± 0.012 |
| ATTTGGGCTT | 1.05 ± 0.12 |
| ATTTGGGGCT | 0.981 ± 0.017 |
| ATTTGGTTTT | 0.999 ± 0.04 |
| ATTTGTAATC | 1.22 ± 0.31 |
| ATTTGTATTG | 1.01 ± 0.022 |
| ATTTGTGTAC | 1.047 ± 0.0071 |
| ATTTGTGTTA | 1.01 ± 0.013 |
| ATTTGTTAAG | 1 ± 0.016 |
| ATTTGTTATC | 0.98096 ± 8.4e-05 |
| ATTTGTTGGT | 0.991 ± 0.013 |

| Sequence | switch fluorescence ratio |
| --- | --- |
| ATTTGTTTTT | 0.978 ± 0.01 |
| ATTTTAACT | 0.988 ± 0.013 |
| ATTTTAACTT | 1.35 ± 0.44 |
| ATTTTAAGGC | 1.002 ± 0.0054 |
| ATTTTAGAAA | 1.01 ± 0.015 |
| ATTTTAGAAC | 1.013 ± 0.0031 |
| ATTTTAGAGT | 1.018 ± 0.0063 |
| ATTTTAGCGT | 0.9958 ± 0.0062 |
| ATTTTCAGTT | 1.01 ± 0.026 |
| ATTTTCATGG | 0.954 ± 0.02 |
| ATTTTCCAGT | 1.01 ± 0.011 |
| ATTTTCGGCG | 1.001 ± 0.0054 |
| ATTTTCTTCA | 1.02 ± 0.016 |
| ATTTTCTTTT | 1.06 ± 0.079 |
| ATTTTGAAGC | 0.991 ± 0.016 |
| ATTTTGAGTT | 0.982 ± 0.016 |
| ATTTTGCAAG | 0.994 ± 0.018 |
| ATTTTGGAGA | 1.02 ± 0.026 |
| ATTTTGGAGG | 0.9908 ± 0.0057 |
| ATTTTGTCAT | 0.972 ± 0.019 |
| ATTTTGTCCT | 1.08 ± 0.11 |
| ATTTTTAGAA | 1.03 ± 0.013 |
| ATTTTTAGTT | 0.991 ± 0.037 |
| ATTTTTCGGC | 0.99 ± 0.02 |
| ATTTTTCTTT | 0.992 ± 0.012 |

| Sequence | switch fluorescence ratio |
| --- | --- |
| ATTTTTGATT | 0.984 ± 0.018 |
| ATTTTTGCGC | 1.03 ± 0.055 |
| ATTTTTGGGT | 0.994 ± 0.031 |
| ATTTTTGTTC | 1.0252 ± 0.00061 |
| ATTTTTTAAC | 1.019 ± 0.0096 |
| ATTTTTTAGG | 0.993 ± 0.025 |
| ATTTTTTCAA | 0.981 ± 0.015 |
| ATTTTTTCTG | 0.9907 ± 0.0059 |
| ATTTTTTGCG | 1 ± 0.028 |
| ATTTTTTGGC | 0.996 ± 0.01 |
| ATTTTTTGTA | 0.984 ± 0.026 |
| ATTTTTTTTC | 0.989 ± 0.022 |
| CAAAAAATAC | 2.23 ± 1.7 |
| CAAAAAATC | 1.02 ± 0.028 |
| CAAAAAGAGC | 0.976 ± 0.015 |
| CAAAAAGGGA | 1.0178 ± 0.00094 |
| CAAAAAGTTT | 1.05 ± 0.097 |
| CAAAAGACGG | 1.04 ± 0.02 |
| CAAAAGTGAT | 1.01 ± 0.024 |
| CAAAAGTGGT | 1.01 ± 0.018 |
| CAAACGCCCG | 0.9968 ± 0.0073 |
| CAAACGTGTG | 0.991 ± 0.041 |
| CAAACTAGC | 0.99 ± 0.003 |
| CAAAGAGTGG | 1.0063 ± 0.00092 |
| CAAAGATAGG | 0.996 ± 0.018 |

| Sequence | switch fluorescence ratio |
| --- | --- |
| CAAAGCAAAA | 2.36 ± 2 |
| CAAAGCACCG | 1.031 ± 0.0063 |
| CAAAGCATCA | 1.05 ± 0.029 |
| CAAAGGACCT | 1.136 ± 0.0082 |
| CAAAGGACGG | 1.25 ± 0.38 |
| CAAAGGATAC | 1.2 ± 0.013 |
| CAAAGGGATA | 1 ± 0.054 |
| CAAAGGTCTC | 0.986 ± 0.023 |
| CAAAGTAGGC | 0.958 ± 0.018 |
| CAAAGTGAAC | 1.01 ± 0.017 |
| CAAATAACGG | 1 ± 0.023 |
| CAAATAATAG | 0.977 ± 0.033 |
| CAAATAGTCG | 1.01 ± 0.027 |
| CAAATATACT | 1.14 ± 0.13 |
| CAAATGGAAG | 0.998 ± 0.028 |
| CAAATGGGAA | 0.99 ± 0.016 |
| CAAATGGGTC | 1.06 ± 0.046 |
| CAAATGTCGT | 1.008 ± 0.008 |
| CAACACGGTG | 1.08 ± 0.038 |
| CAACAGGGGG | 1.06 ± 0.056 |
| CAACATGGAG | 0.9972 ± 0.0089 |
| CAACCCGGTA | 1.51 ± 0.7 |
| CAACCGAGGC | 1.18 ± 0.028 |
| CAACCGGTTG | 0.984 ± 0.017 |
| CAACCTGGGA | 1.022 ± 0.0017 |

| Sequence | switch fluorescence ratio |
| --- | --- |
| CAACGGGCGG | 1 ± 0.019 |
| CAACGGTTTC | 1.01 ± 0.019 |
| CAACGTTTTG | 0.977 ± 0.023 |
| CAACTGCACG | 1.22 ± 0.079 |
| CAACTGGCGG | 0.99 ± 0.017 |
| CAACTTGAAG | 0.977 ± 0.02 |
| CAACTTTAGT | 1.031 ± 0.0035 |
| CAAGAAATCT | 1.0078 ± 0.0005 |
| CAAGACGTTG | 0.974 ± 0.012 |
| CAAGAGAATG | 0.999 ± 0.037 |
| CAAGAGGGTG | 1.11 ± 0.15 |
| CAAGCGGACT | 1.06 ± 0.049 |
| CAAGCGGTT | 0.9628 ± 0.0056 |
| CAAGCTTAAA | 0.9729 ± 0.009 |
| CAAGCTTAGG | 0.995 ± 0.014 |
| CAAGGAATTT | 0.969 ± 0.023 |
| CAAGGACAGC | 1.05 ± 0.047 |
| CAAGGAGGGA | 1.01 ± 0.049 |
| CAAGGCTGGG | 1.02 ± 0.049 |
| CAAGGGGGAT | 1.01 ± 0.013 |
| CAAGGGGGTG | 1.03 ± 0.03 |
| CAAGGGGTTT | 0.99 ± 0.033 |
| CAAGGTCCGA | 0.99445 ± 0.00086 |
| CAAGGTCGGC | 1 ± 0.04 |
| CAAGGTTTAC | 0.9881 ± 0.00047 |
